Laboratory results: PMC7263513

Columns and labels:
[1] = target: SARS-CoV-2 receptor binding domain (RBD) (Severe acute respiratory syndrome coronavirus 2 (2019-nCoV) (SARS-CoV-2).) (UniProt P0DTC2)
[2] = target: SARS-CoV-2 receptor binding domain (RBD) (SARS-CoV-2) (UniProt P0DTC2)

Substance	IC50 of neutralisation of SARS-CoV-2 pseudovirus (293T (ACE2) cells) [1] [µg/mL]	IC50 of neutralisation of SARS-CoV-2 pseudovirus (293T (ACE2) cells) [2] [µg/mL]
C002 (antibody)	0.00888	
C104 (antibody)	0.0233	
C105 (antibody)	0.0261	
C110 (antibody)	0.0184	
C144 (antibody)		0.00691
